How the values were obtained:
[1] = biological target: full-length human neurofibromin (His6-tev-NF1, 2–2818) (human) (UniProt P21359); assay: SAXS + SANS; full-length neurofibromin in solution, SAXS at 0.5 and 1.0 mg/ml, SANS at 1 mg/ml, 20 °C; molar mass from scattering
[2] = biological target: full-length human neurofibromin (His6-tev-NF1, 2–2818) (human) (UniProt P21359); assay: SEC-MALS; single purified proteins; Superose-6 Increase or Superdex S-200 10/300 GL, Wyatt Heleos and Optilab T-Rex; BSA as standard
[3] = biological target: full-length human neurofibromin (His6-tev-NF1, 2–2818) (human) (UniProt P21359); assay: AUC; sedimentation velocity and equilibrium of full-length neurofibromin, 1.2 μM to 25 nM, 20 °C, 20 mM HEPES pH 7.4, 300 mM NaCl, 1 mM TCEP; dimer to monomers

“full-length human neurofibromin (His6-tev-NF1, 2–2818), P21359-2 2-2818” was tested. Which stoichiometry N [1] did it give?
Its stoichiometry N is 2.

What about the stoichiometry N [2] of the same substance?
Its stoichiometry N is 2.

And the Kd [3]?
The Kd was under 1 nM.
